Source: patent US20260209789A1 (WESTLAKE UNIVERSITY, published 2026)

Columns and labels:
[1] = molecular target: endogenous eIF4G (human (endogenous in HEK-293 cells), UniProt Q04637 1-1599); assay: anti-Flag co-IP from HEK-293 lysate, Western blot with anti-eIF4G (FIG. 6A)
[2] = molecular target: endogenous eIF4E (human (endogenous in HEK-293 cells), UniProt P06730 2-217); assay: anti-Flag co-IP from HEK-293 lysate, Western blot with anti-eIF4E (FIG. 6A)
[3] = molecular target: T1, BCR-ABL
T1 construct: Overexpressed in HEK-293 cells; also called BCR-ABL oncoprotein; BCR-ABL fusion protein

Chain of endogenous eIF4G (Q04637 whole entry): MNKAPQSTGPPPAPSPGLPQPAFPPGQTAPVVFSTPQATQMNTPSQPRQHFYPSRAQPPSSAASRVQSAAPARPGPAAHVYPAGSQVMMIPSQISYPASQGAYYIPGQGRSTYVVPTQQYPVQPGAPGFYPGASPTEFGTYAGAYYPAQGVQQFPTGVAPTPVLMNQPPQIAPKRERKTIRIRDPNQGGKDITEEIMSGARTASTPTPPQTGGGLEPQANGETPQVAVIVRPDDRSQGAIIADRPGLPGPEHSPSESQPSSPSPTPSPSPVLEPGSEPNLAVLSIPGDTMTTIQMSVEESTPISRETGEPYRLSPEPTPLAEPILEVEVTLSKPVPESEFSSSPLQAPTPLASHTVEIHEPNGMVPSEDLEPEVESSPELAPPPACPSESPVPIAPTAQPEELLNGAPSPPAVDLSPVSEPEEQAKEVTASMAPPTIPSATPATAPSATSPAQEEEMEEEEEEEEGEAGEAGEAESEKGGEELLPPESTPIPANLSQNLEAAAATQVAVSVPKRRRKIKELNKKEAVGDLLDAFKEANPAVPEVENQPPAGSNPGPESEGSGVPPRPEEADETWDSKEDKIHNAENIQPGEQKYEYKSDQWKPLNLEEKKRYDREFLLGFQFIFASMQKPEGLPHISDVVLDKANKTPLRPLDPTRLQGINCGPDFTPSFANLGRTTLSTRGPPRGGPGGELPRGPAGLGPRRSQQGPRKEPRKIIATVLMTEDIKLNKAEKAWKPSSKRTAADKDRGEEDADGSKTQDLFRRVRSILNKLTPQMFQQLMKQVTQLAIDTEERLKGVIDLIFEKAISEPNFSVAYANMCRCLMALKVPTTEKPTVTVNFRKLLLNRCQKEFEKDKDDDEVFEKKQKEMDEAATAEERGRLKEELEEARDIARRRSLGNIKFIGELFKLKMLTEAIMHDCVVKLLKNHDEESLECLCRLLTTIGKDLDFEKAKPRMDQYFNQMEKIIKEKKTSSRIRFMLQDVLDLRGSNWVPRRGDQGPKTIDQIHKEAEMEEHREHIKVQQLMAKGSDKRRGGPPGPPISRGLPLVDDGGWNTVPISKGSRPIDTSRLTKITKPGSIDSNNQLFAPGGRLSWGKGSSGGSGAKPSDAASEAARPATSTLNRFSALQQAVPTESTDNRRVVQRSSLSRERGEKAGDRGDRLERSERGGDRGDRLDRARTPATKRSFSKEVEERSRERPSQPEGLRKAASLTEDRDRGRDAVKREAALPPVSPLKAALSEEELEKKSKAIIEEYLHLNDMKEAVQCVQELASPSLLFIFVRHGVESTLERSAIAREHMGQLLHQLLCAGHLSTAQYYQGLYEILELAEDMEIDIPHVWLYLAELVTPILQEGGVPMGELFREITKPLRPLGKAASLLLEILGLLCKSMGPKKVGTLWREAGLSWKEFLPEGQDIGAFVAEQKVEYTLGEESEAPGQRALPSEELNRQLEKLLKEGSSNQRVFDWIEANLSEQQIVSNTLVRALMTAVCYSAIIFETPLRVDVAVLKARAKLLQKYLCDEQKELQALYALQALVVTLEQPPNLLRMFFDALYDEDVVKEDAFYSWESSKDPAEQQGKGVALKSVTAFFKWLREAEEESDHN
Chain of endogenous eIF4E (P06730 2-217 limits assumed): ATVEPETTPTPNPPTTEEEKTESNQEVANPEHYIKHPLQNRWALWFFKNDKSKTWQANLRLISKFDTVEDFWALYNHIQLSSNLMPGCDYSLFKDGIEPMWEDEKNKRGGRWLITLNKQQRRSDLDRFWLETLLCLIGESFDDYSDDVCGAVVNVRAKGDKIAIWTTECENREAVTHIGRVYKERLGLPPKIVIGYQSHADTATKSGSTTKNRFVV

Row | Binder | binding result [1] | binding result [2] | binding result [3]
1 | 3xFLAG-MCP (other, also called 3×FLAG-tagged MCP; pSL1084) MDYKDHDGDYKDHDIDYKDDDDKASNFTQFVLVDNGGTGDVTVAPSNFANGVAEWISSNSRSQAYKVTCSVRQSSAQKRKYTIKVEVPKVATQTVGGVELPVAAWRSYLNMELTIPIFATNSDCELIVKAMQGLLKDGNPIPSAIAANSGIY | no binding | no binding | –
2 | 3xFLAG-MCP-ABI(iDab) (VHH, also called 3×FLAG-tagged MCP-ABI (iDab)3; 3xFLAG-MCP-(ABI(iDab))3) MDYKDHDGDYKDHDIDYKDDDDKASNFTQFVLVDNGGTGDVTVAPSNFANGVAEWISSNSRSQAYKVTCSVRQSSAQKRKYTIKVEVPKVATQTVGGVELPVAAWRSYLNMELTIPIFATNSDCELIVKAMQGLLKDGNPIPSAIAANSGIYASGSGGGGDVGSEVQLLESGGGLVQPGGSLRLSCAASGFTFSTFSMNWVRQAPGKGLEWVSYISKCGHVIYYADSVKGRFTISRDNSKNTLYLQMNSLRAEDTAVYYCARGPLWSFVRMSFDYWGQGTLVTVSSAS | – | – | binds
3 | 3xFLAG-MCP-NSP3 (other, also called 3×FLAG-tagged MCP-NSP3; pSL1083) MDYKDHDGDYKDHDIDYKDDDDKASNFTQFVLVDNGGTGDVTVAPSNFANGVAEWISSNSRSQAYKVTCSVRQSSAQKRKYTIKVEVPKVATQTVGGVELPVAAWRSYLNMELTIPIFATNSDCELIVKAMQGLLKDGNPIPSAIAANSGIYASGSGGGGDVMLKMESTQQMASSIINTSFEAAVVAATSTLELMGIQYDYNEVYTRVKSKFDYVMDDSGVKNNLLGKAATIDQALNGKFGSAARNRNWMADTRTTARLDEDVNKLRMMLSSKGIDQKMRVLNACFNVKRVPGKSSSIIKCTRLMRDKIERGEVEVDDSFVEEKMEVDTIDWKSRYEQLEKRFESLKQRVNEKYTSWVQKAKKVNENMYSLQNVISQQQSQIADLQNYCNKLEVDLQNKISSLVSSVEWYLKSMELPDEIKTDIEQQLNSIDVINPINAIDDFESLIRNIILDYDRIFLMFKGLMRQCNYEYTYE | binds | – | –
4 | 3xHA-CCmut3-NSP3 (designed binder, also called 3×HA-tagged CCmut3-NSP3; pSL1102) MVDPVGFAEAWKAQFPDSEPPRMELRSVGDIEQELERAEARIRRNEQRVNQERFRMIYLETLLAKEKKSYDRASGSGGGGDVASMLKMESTQQMASSIINTSFEAAVVAATSTLELMGIQYDYNEVYTRVKSKFDYVMDDSGVKNNLLGKAATIDQALNGKFGSAARNRNWMADTRTTARLDEDVNKLRMMLSSKGIDQKMRVLNACFNVKRVPGKSSSIIKCTRLMRDKIERGEVEVDDSFVEEKMEVDTIDWKSRYEQLEKRFESLKQRVNEKYTSWVQKAKKVNENMYSLQNVISQQQSQIADLQNYCNKLEVDLQNKISSLVSSVEWYLKSMELPDEIKTDIEQQLNSIDVINPINAIDDFESLIRNIILDYDRIFLMFKGLMRQCNYEYTYEYPYDVPDYAYPYDVPDYAYPYDVPDYA | – | – | binds
